The subject of this assay is NL-Rluc virus. Description: Combinectin potency assay: antiviral EC50, NL-Rluc virus in MT-2 cells, luciferase readout. The assay is classed as cell-based, HIV-1. Particulars: Anti-N17 Adnectin - HIV fusion peptide inhibitor Combinectin, Table 4. The essentials:
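Peptides, serially diluted threefold over 11 points in triplicate, were exposed for 4–5 days to MT-2 cells preinfected 1 h with NL-Rluc virus (MOI 0.01). Replication read out as Renilla luciferase signal, with EC50 derived against untreated infected controls.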

B1: 426 (protein)
chain: MGHHHHHHGGSVSDVPRDLEVVAATPTSLLISWEYKVNAYRYYRITYGETGGNSPVQEFTVPSVLSTATISGLKPGVDYTITVYAVTYGVDSDPISINYRTEIDGGGGSGGGGSGGGGSGGGGSEYEARIEALIRAAQEQQEKNEAALRELYKWAS
modifications: Anti-N17 Adnectin - HIV fusion peptide inhibitor Combinectin
A word on the EC50: it is the midpoint of the concentration-response curve. As to B1, the EC50 is 139 nM.

B2: 422 (protein)
chain: MGHHHHHHGVSDVPRDLEVVAATPTSLLISWKYKVHPYRYYRITYGETGGNSPVQEFTVPSVLSTATISGLKPGVDYTITVYAVTYGVNSLPISINYRTEIDGGGGSGGGGSGGGGSGGGGTEYEARIEALIRAAQEQQEKNEAALRELDK
modifications: Anti-N17 Adnectin - HIV fusion peptide inhibitor Combinectin
Regarding B2, the EC50 was determined as 3 nM.

B3: 427 (protein)
chain: MGHHHHHHGVSDVPRDLEVVAATPTSLLISWKYKVHPYRYYRITYGETGGNSPVQEFTVPSVLSTATISGLKPGVDYTITVYAVTYGVNSLPISINYRTEIDGGGGSGGGGSGGGGSGGGGTEYEARIEALIRAAQEQQEKNEAALRELKEWASIWN
modifications: Anti-N17 Adnectin - HIV fusion peptide inhibitor Combinectin
As for B3, the EC50 turned out to be 143 nM.

B4: 424 (protein)
chain: MGHHHHHHGGSVSDVPRDLEVVAATPTSLLISWEYKVNAYRYYRITYGETGGNSPVQEFTVPSVLSTATISGLKPGVDYTITVYAVTYGVDSDPISINYRTEIDGGGGSGGGGSGGGGSGGGGARIEEYAARIEALIRAAQEQQEKNEAALRELYKWAS
modifications: Anti-N17 Adnectin - HIV fusion peptide inhibitor Combinectin
For B4, the half-maximal effective concentration (EC50) was 39 nM.

B5: 423 (protein)
chain: MGHHHHHHGVSDVPRDLEVVAATPTSLLISWDAPAVTVRYYRITYGETGGNSPVQEFTVPGSKSTATISGLKPGVDYTITVYAVTGRGESPASSKPISINYRTEIDGGGGSGGGGSGGGGSGGGGSRIEALIRAAQEQQEKNEAALRELYKWTS
modifications: Anti-N17 Adnectin - HIV fusion peptide inhibitor Combinectin
As for B5, the EC50 came to 122 nM.

B6: 421 (protein)
chain: MGHHHHHHGVSDVPRDLEVVAATPTSLLISWVAGAEDYQYYRITYGETGGNSPVQEFTVPHDLVTATISGLKPGVDYTITVYAVTDMMHVEYTEHPISINYRTEIDGGGGSGGGGSGGGGSGGAIAEYAARIEALIRAAQEQQEKNEAALRELDKWAS
modifications: Anti-N17 Adnectin - HIV fusion peptide inhibitor Combinectin
Turning to B6, the EC50 turned out to be 50 nM.

B7: 425 (protein)
chain: MGHHHHHHGGSVSDVPRDLEVVAATPTSLLISWEYKVNAYRYYRITYGETGGNSPVQEFTVPSVLSTATISGLKPGVDYTITVYAVTYGVDSDPISINYRTEIDGGGGSGGGGSGGGGSGGGGTIAEYAARIEALIRAAQEQQEKNEAALRELYKWAS
modifications: Anti-N17 Adnectin - HIV fusion peptide inhibitor Combinectin
In the case of B7, the concentration giving a half-maximal response (EC50) was 523 nM.

For the origin of these results see patent US11155602B2, “Polypeptides targeting HIV fusion” (priority 2015, dated 2021).
